The values that follow come from publication PMC10665551.

The term stoichiometry N denotes the number of molecules, sites or subunits per partner or assembly.

Assay [1] concerns the target Pichia pastoris recombinant Oo-ASP-1 (Ostertagia ostertagi). The experiment in a line: reducing and non-reducing SDS-PAGE + LC-MS of tryptic peptides; denaturing SDS-PAGE with and without β-mercaptoethanol; 1D and 2D LC-MS of reduced (DTT/IAA) and non-reduced tryptic digests to map intra- and intermolecular disulphide bridges; disulphide-linked dimer.
Assay [2] deals with native Oo-ASP-1 (activation-associated secreted protein 1 of Ostertagia ostertagi) (Ostertagia ostertagi). Described as above.

Turning to “Pichia pastoris recombinant Oo-ASP-1 (natural protein)”, in assay [1], the stoichiometry N turned out to be 2.
Regarding “native Oo-ASP-1 (activation-associated secreted protein 1 of Ostertagia ostertagi) (natural protein)”, in assay [2], the stoichiometry N was 2.
